Laboratory results as given in US20070059309A1.

Key:
[1] = biological target: leukocyte interferon (Sigma Product No. I-2396); test: cell-based or functional assay
[2] = biological target: lymphoblastoid interferon (NIH reference Ga23-901-532)

B1: murine anti-human IFN-α monoclonal antibody 9F3 (antibody, IgG2, V domains shown)
VL: DIVLTQSPASLAVSLGQRATISCRASQSVSTSSYSYMHWYQQKPGQPPKVLISYASNLESGVPARFSGSGSGTDFTLNIHPVEEGDTATYFCQHSWGIPRTFGAGTKLELRRAV
VH: EVQLQQSGPELVKPGASVKISCKTSGYTFTEYIIHWVKQGHGRSLEWIGSINPDYDITNYNQRFKGKATLTLDKSSRTAYLELRSLTSEDSAVYYCASWISDFFDYWGQGTTLMVSAAS
What does the source list for B1?
neutralization of anti-viral activity [1]: > 95%; EC50 (read off the bars); loss of protection by 3 IU/ml lymphoblastoid interferon, cytopathic effect [2]: 3 ng/mL; EC50 (read off the bars); loss of protection by 10 IU/ml lymphoblastoid interferon, cytopathic effect [2]: 5 ng/mL
